Reference: patent US20210198377A1 (XDCEXPLORER SHANGHAI, published 2021)
Residue numbers refer to the chain shown, from its start. Values belong to the binder of their own block, whether it stands above or below them.

What was measured:
[1] = molecular target: T1, biotinylated recombinant TPBG protein (Homo sapiens (Human), UniProt Q13641 32-355, Biotinylated; the number and positions of the biotin labels are not stated and the letters do not carry them.); assay: competitive ELISA; row antibody 5 ug/mL; competitor: coated 12B12C7C3
T1 sequence: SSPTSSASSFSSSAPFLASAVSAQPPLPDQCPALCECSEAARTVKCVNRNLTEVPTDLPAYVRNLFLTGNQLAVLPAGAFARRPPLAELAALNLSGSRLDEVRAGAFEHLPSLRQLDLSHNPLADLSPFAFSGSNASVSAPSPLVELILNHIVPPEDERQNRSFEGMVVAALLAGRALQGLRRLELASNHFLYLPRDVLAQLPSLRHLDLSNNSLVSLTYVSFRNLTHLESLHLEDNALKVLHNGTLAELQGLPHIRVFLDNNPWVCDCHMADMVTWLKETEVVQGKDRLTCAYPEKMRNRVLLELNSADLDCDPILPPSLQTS
Experimental: (§1) The purified antibodies to be tested were diluted to 1 μg/mL using PBS, and coated with high-adsorption of 96-well microplates at […]. After overnight coating at 4[…], 250 μL of blocking buffer (PBS containing 0.01% (v/v) Tween20 and 1% (w/w) BSA) was added to block coating at room temperature for 1 h, and 0.05 μg/mL of biotinylated recombinant TPBG protein was added to each well. Meanwhile, 5 μg/mL final concentration of competitive antibodies, i.e. the purified antibodies obtained from Embodiment 2 with the clone number of 12B12C7C3, 5G4H10G5, 37H9C5G2, 39A11G5F2, 52C9E9F6, 28D4E6A9, 36A10D8B12, 99E12C7H1, 103E2E9C2 and 106D5G3D10 were added and incubated at 25-37° C. for 1-2 h. The plates were washed three times with plate-washing buffer (PBS containing 0.01% (v/v) Tween20) and HRP (horseradish peroxidase)-labeled streptavidin (purchased from Sigma) was added. After incubating at 37° C. for 0.5 h, the plates were washed three times with plate-washing buffer (PBS containing 0.01% (v/v) Tween20), and 100 μL of TMB substrate was added to each well and the plates were further incubated at room temperature for 30 min prior to adding 100 μL of stop buffer (1.0N HCl) to each well. A₄₅₀ₙₘ values were read using an ELISA microplate reader (SpectraMax 384plus purchased from Molecular Device) and results were shown in FIG. 6. The higher the values of the competition rate, the closer the antigen surface of the two antibodies are.

[2] = molecular target: T1, biotinylated recombinant TPBG protein; assay: competitive ELISA; row antibody 5 ug/mL; competitor: coated 37H9C5G2
Experimental: as §1

[3] = molecular target: T1, biotinylated recombinant TPBG protein; assay: competitive ELISA; row antibody 5 ug/mL; competitor: coated 106D5G3D10
Experimental: as §1

[4] = molecular target: T1, biotinylated recombinant TPBG protein; assay: competitive ELISA; row antibody 5 ug/mL; competitor: coated 99E12C7H1
Experimental: as §1

[5] = molecular target: T1, biotinylated recombinant TPBG protein; assay: competitive ELISA; row antibody 5 ug/mL; competitor: coated 5G4H10G5
Experimental: as §1

[6] = molecular target: T1, biotinylated recombinant TPBG protein; assay: competitive ELISA; row antibody 5 ug/mL; competitor: coated 39A11G5F2
Experimental: as §1

[7] = molecular target: T1, biotinylated recombinant TPBG protein; assay: competitive ELISA; row antibody 5 ug/mL; competitor: coated 36A10D8B12
Experimental: as §1

[8] = molecular target: T1, biotinylated recombinant TPBG protein; assay: competitive ELISA; row antibody 5 ug/mL; competitor: coated 28D4E6A9
Experimental: as §1

B1: 28D4E6A9 (antibody, V domains shown)
VH: DVQLVESGGGLVRPGGSLKLSCAASGFTFSNYVMSWARQSPEKRLEWVAEISTGGSHTYYSDTVTGRFTISRDNAKKALYLEMSSLRSEDTAIYYCIMFYYGSSYSMDYWGQGTSVTVSS
VL: DIQMTQSTSSLSASLGDRITISCRASQDIRNYLNWYQQKPDGTVKLLIYHTSRLHSGVPSRFSGSGSGTDYSLTISNLEQEDIATYFCQQGDTLPLTFGAGTRLELK
notes: Mouse hybridoma antibody purified from culture supernatant; also called TPBG antibody; lead antibody
- competition rate [1]: 24%
- competition rate [2]: 0%
- competition rate [3]: 5%
- competition rate [4]: 11%
- competition rate [5]: 11%
- competition rate [6]: 0%
- competition rate [7]: 75%
- competition rate [8]: 96%

B2: 36A10D8B12 (antibody, V domains shown)
VH: DVQLQESGPGMVKPSQSLSLTCTVTGYSITSGYDWHWIRHFPGNKLEWMGYISYSGNTNYNPSLKSRISITHNTSKNHFFLRLNSVTTEDTATYYCARGYGNWDAMDYWGQGTSVTVSS
VL: DIVMTQSQKFMSTSVGDRVSVTCKASQIVDTNVAWYQQKPGQSPKALISSASYRYSGVPDRFTGSGSGTDFTLTISNVQSEDLAEYFCQQYNSYPLTFGAGTKLELT
notes: as for B1
- competition rate [1]: 21%
- competition rate [2]: 96%
- competition rate [3]: 14%
- competition rate [4]: 25%
- competition rate [5]: 17%
- competition rate [6]: 4%
- competition rate [7]: 85%
- competition rate [8]: 86%

B6: 12B12C7C3 (antibody, V domains shown)
VH: DVQLVESGGGLVQPGGSRKLSCAASGFTFSNFGMHWVRQAPEKGLEWVAYISSGSTSFYYADTVKGRFTISRDNPKNTLFLQMTSLRSEDTAMYYCSRTNSLLRGFFDAWGAGTTVTVSS
VL: DIVLTQSPASLAVSLGQRATISCRASQSVSSSSYTYLHWYQQKPGQPPKLLIKSASNLESGVPARFSGTGSGTDFTLNIHPVEEEDTATYYCQHSWEIPLTFGAGTKLELK
notes: as for B1
- competition rate [1]: 97%
- competition rate [2]: 1%
- competition rate [3]: 96%
- competition rate [4]: 25%
- competition rate [5]: 47%
- competition rate [6]: 0%
- competition rate [7]: 3%
- competition rate [8]: 74%

B7: 5G4H10G5 (antibody, V domains shown)
VH: EVQLVESGGDLVQPGGSLKLFCAASGFTFSTYGLSWVRQTPDKRLELVATITNNDGSAYYPDSVKGRFTISRDKAKNTLFLQMTSLKSEDTAMYYCARETGFGSSYLFDYWGQGTLVTVSA
VL: NIVMTQTPKFLLVSAGDRVTITCKASQSVSNDVAWYQQKPGQSPKLLIYFATNRYTGVPNRFTGSGYGTEFTFTISSVQAEDLAVYFCQQDYSSPTFGGGTKLEIK
notes: as for B1
- competition rate [1]: 9%
- competition rate [2]: 5%
- competition rate [3]: 3%
- competition rate [4]: 95%
- competition rate [5]: 97%
- competition rate [6]: 10%
- competition rate [7]: 1%
- competition rate [8]: -1%

Continued, values first:

- competition rate [1]: 11%
- competition rate [2]: 5%
- competition rate [3]: 12%
- competition rate [4]: 94%
- competition rate [5]: 95%
- competition rate [6]: 1%
- competition rate [7]: 8%
- competition rate [8]: 38%
B3: 99E12C7H1 (antibody, V domains shown)
VH: QIQLVQSGPELKKPGETVKISCKPSGYTFTAYGLSWVKQAPGQGFQWMGWINTYSGVPTYTDDFKGRFAFSLETSAGTASLQITNLKNEDTATYFCARSSIPPFEYWGPGTTLTVSS
VL: SFVMTQSPKFLLVSVGDRVTITCKASQSVSNDVAWYQQKPGQPPRVLIYFASNRYTGVPDRFTGSGYGTDFTFTISTVQAEDLALYFCQQDYSSPWTFGGGTKLEIK
notes: as for B1

- competition rate [1]: 6%
- competition rate [2]: 96%
- competition rate [3]: 4%
- competition rate [4]: 7%
- competition rate [5]: 12%
- competition rate [6]: 3%
- competition rate [7]: 94%
- competition rate [8]: 58%
B4: 37H9C5G2 (antibody, V domains shown)
VH: QVQLQQSDAELVRPGASVKMSCKVSGYTFTDHTIHWMKQRPEQGLEWIGYIYPRDGSGTYNEKFKGKATLTADKSSSTAYMQLNSLTSEDSAVYFCARDGSSHYWYFDVWGTGTTVTVSS
VL: DIQMTQSPASLSASVGETVTITCRASEIIYNYLAWYQQKQGKSPQLLVYNAKTLAEGVPSRFSGSYSGTQFSLNINSLQSEDFGIYYCQHHHDTPLTFGAGTKLDLK
notes: as for B1

- competition rate [1]: 95%
- competition rate [2]: 3%
- competition rate [3]: 94%
- competition rate [4]: 11%
- competition rate [5]: 40%
- competition rate [6]: 1%
- competition rate [7]: 1%
- competition rate [8]: 1%
B5: 106D5G3D10 (antibody, V domains shown)
VH: EVQLVESGGGLVKPGGSLKLSCAASGFTFSDYGMHWVRQAPEKGLEWVGYISSGTYVVYYADTVKGRFTISRDNAKNTLFLQMTSLRSEDTAIYYCSTYGSNPFDYWGQGTTLTVSS
VL: QLVLTQSPAIMSASPGEKVTITCSATSSVSSMHWFQQKPVTSPKLWIYSTSNLASGVPTRFSGSGSGTSYSLTISRMEAEDAATYYCQQRSGYPPIFTFGSGTKLEIK
notes: as for B1

- competition rate [1]: 9%
- competition rate [2]: 0%
- competition rate [3]: 4%
- competition rate [4]: 16%
- competition rate [5]: 19%
- competition rate [6]: 96%
- competition rate [7]: 0%
- competition rate [8]: 0%
B8: 39A11G5F2 (antibody, V domains shown)
VH: QVQLQQSGAELMKPGASMRLSCKATGYTFTGYWLEWIKRRPGHGLEWIGEILPGRGSTNYNEKFKGKATFTAETSSNTAYMQLTSLTTEDSAIYYCARGGRDFDNWGQGTTLTVSS
VL: DIQMTQSTSSLSASLGDRVTISCSASQGINNHLNWYQQKPDGTVKLLIYYTSSLHSGVPSRFSGSGSGTDYSLTISNLEPEDIAIYYCQQFSKLPYTFGGGTKVEMK
notes: as for B1

- competition rate [1]: 27%
- competition rate [2]: 4%
- competition rate [3]: 7%
- competition rate [4]: 18%
- competition rate [5]: 32%
- competition rate [6]: 97%
- competition rate [7]: 19%
- competition rate [8]: 17%
B9: 52C9E9F6 (antibody, V domains shown)
VH: QVQLQQSGAELMKPGASVKLSCKATGYTFTGYWIEWIKQRPGHGLEWIGEILPGRGSTDYNEKFKGKATFTADTSSNTAYMQLSSLTTEDSAIYYCTRGRLDFTYWGQGTLVTVSA
VL: B8 VL with S7T, N30R, H32Y, I85T, F91Y, L94V, Y96W, V104L, M106I
notes: as for B1

- competition rate [1]: 0%
- competition rate [2]: 23%
- competition rate [3]: 0%
- competition rate [4]: 3%
- competition rate [5]: 7%
- competition rate [6]: 0%
- competition rate [7]: 31%
- competition rate [8]: 95%
B10: 103E2E9C2 (antibody, V domains shown)
VH: EVQLQQSGPVLVKPGASVKMSCEASGYSFIDYYMSWVKQSRGRSLEWIGVFNPYSGEIIYNQKFKGKATLTVDKSSSTAYMELSSLTSEDSGVYSCARLRISYYAIDYWGQGTSVAVSS
VL: ENVLTQSPAIMSASPGEKVTMTCRATSSVSSGHFHWYQQKSGASPKVWIYSTSNLASGVPARFSGSGSGTSFSLTISSVEAEDVATYFCQQYSGYPLTFGGGTKLEIK
notes: as for B1
